The source of these data is publication PMC7662524, “Determination and Dissection of DNA-Binding Specificity for the Thermus thermophilus HB8 Transcriptional Regulator TTHB099”.

T1: TTHB099 (Thermus thermophilus HB8, UniProt Q53W63 1-195)
T1 sequence: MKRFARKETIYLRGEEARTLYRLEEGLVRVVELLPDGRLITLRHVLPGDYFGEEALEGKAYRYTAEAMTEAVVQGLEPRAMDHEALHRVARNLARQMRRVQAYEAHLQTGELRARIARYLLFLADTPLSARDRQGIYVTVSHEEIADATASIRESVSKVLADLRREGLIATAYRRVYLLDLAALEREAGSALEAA

B1: ST2_REPSAis control (dsDNA)
DNA 1: CTAGGAATTCGTGCAGAGGTGAATCGTCATAGAATTCGTTACCATCCCTCCAGAAGCTTGGAC
DNA 2: GTCCAAGCTTCTGGAGGGATGGTAACGAATTCTATGACGATTCACCTCTGCACGAATTCCTAG
B2: TTHA0374 site (dsDNA)
DNA 1: AGGAATTCGTGCAGAGGTGAATAGTGATGTAAACTAAATTACCATCCCTCCAGAAGCTTG
DNA 2: CAAGCTTCTGGAGGGATGGTAATTTAGTTTACATCACTATTCACCTCTGCACGAATTCCT
B3: TTHA1833 site (dsDNA)
DNA 1: AGGAATTCGTGCAGAGGTGAATTGTAGGCCAGGCCACGTTACCATCCCTCCAGAAGCTTG
DNA 2: CAAGCTTCTGGAGGGATGGTAACGTGGCCTGGCCTACAATTCACCTCTGCACGAATTCCT
B4: ST2_099 m7 (dsDNA)
DNA 1: B2 DNA 1 with A23T, G26A, A27T, G29T, A32G, C34A, A37C
DNA 2: B2 DNA 2 with T24G, G27T, T29C, C32A, T34A, C35T, T38A
B5: TTHA1911/12 site (dsDNA)
DNA 1: AGGAATTCGTGCAGAGGTGAATTGTACTTGAGCATACCTTACCATCCCTCCAGAAGCTTG
DNA 2: CAAGCTTCTGGAGGGATGGTAAGGTATGCTCAAGTACAATTCACCTCTGCACGAATTCCT
B6: ST2_099 m1 (dsDNA)
DNA 1: B5 DNA 1 with T23G, C27T, T29C, G30T, C33A, C38A
DNA 2: B5 DNA 2 with G23T, G28T, C31A, A32G, G34A, A38C
B7: ST2_099 m8 (dsDNA)
DNA 1: B5 DNA 1 with C27T, T29C, G30A, C33A, C38A
DNA 2: B5 DNA 2 with G23T, G28T, C31T, A32G, G34A
B8: TTHA0132/33 site (dsDNA)
DNA 1: B2 DNA 1 with A23T, G26A, T28G, T30G, A32G, C34A
DNA 2: B5 DNA 2 with G23T, G24T, G28T, A32C, A33C, G34T
B9: ST2_099 m4 (dsDNA)
DNA 1: B5 DNA 1 with A26C, C27T, T29C, G30T, C33A, C38A
DNA 2: B5 DNA 2 with G23T, G28T, C31A, A32G, G34A, T35G
B10: ST2_099 m3 (dsDNA)
DNA 1: B5 DNA 1 with T25A, C27T, T29C, G30T, C33A, C38A
DNA 2: B5 DNA 2 with G23T, G28T, C31A, A32G, G34A, A36T
B11: TTHA0201/02 site (dsDNA)
DNA 1: AGGAATTCGTGCAGAGGTGAATTTTGTTATACGCCACATTACCATCCCTCCAGAAGCTTG
DNA 2: CAAGCTTCTGGAGGGATGGTAATGTGGCGTATAACAAAATTCACCTCTGCACGAATTCCT
B12: ST2_099 m2 (dsDNA)
DNA 1: B5 DNA 1 with G24T, C27T, T29C, G30T, C33A, C38A
DNA 2: B5 DNA 2 with G23T, G28T, C31A, A32G, G34A, C37A
B13: ST2_099 m6 (dsDNA)
DNA 1: B5 DNA 1 with C27T, T28A, T29C, G30T, C33A, C38A
DNA 2: B5 DNA 2 with G23T, G28T, C31A, A32G, A33T, G34A
B14: ST2_099 m5 (dsDNA)
DNA 1: B5 DNA 1 with T29C, G30T, C33A, C38A
DNA 2: B5 DNA 2 with G23T, G28T, C31A, A32G
B15: TTHA1626/27 site (dsDNA)
DNA 1: B2 DNA 1 with A23G, G26A, A27T, T28G, T30G, A33G, A37C
DNA 2: B3 DNA 2 with C23T, G26A, C29T, G31C, G32C, C34A, A38C
B16: TTHB088/89 site (dsDNA)
DNA 1: B3 DNA 1 with T23G, G28C, C30T, A31G, G33A, G38A
DNA 2: B3 DNA 2 with C23T, C28T, T30C, G31A, C33G, A38C
B17: TTHA0506/07 site (dsDNA)
DNA 1: B5 DNA 1 with A26T, C27T, G30C, G32A, C33G, C38A
DNA 2: B5 DNA 2 with G23T, G28C, C29T, C31G, G34A, T35A
B18: TTHA0080/81 site (dsDNA)
DNA 1: B5 DNA 1 with A26G, C27T, G30T, C33T, A34T, C38T
DNA 2: B5 DNA 2 with G23A, T27A, G28A, C31A, G34A, T35C

Positions count from the first letter of the chain named.

In the first series the target is T1, TTHB099. As to the kind of experiment: BLI; up to 450 nM TTHB099; Buffer, salt, pH and temperature not given (as previously described); BLI 17, 50, 150, 450 nM TTHB099 on streptavidin sensors; EMSA 0-42.2 nM TTHB099. As to conditions: protein: recombinant; label: 5' biotin. In general terms: Biolayer interferometry detects binding as a change in optical thickness at a sensor tip.
Take B1: the binding result was “no binding”. Same read-out and setting: for B2 the value was “no binding”.

A further series has as its target T1, TTHB099. As to the kind of experiment: BLI; Buffer, salt, pH and temperature not given (as previously described); BLI 17, 50, 150, 450 nM TTHB099 on streptavidin sensors; EMSA 0-42.2 nM TTHB099. Particulars: protein: recombinant; label: 5' biotin.
Regarding B3, the equilibrium dissociation constant (Kd) – broadly, the free concentration of one partner at which half of the binding sites on the other are occupied at equilibrium, for simple one-to-one binding – was determined as 3.05 nM.

In the case of B4, the equilibrium dissociation constant (Kd) stood at 5.82 nM.

Take B5: the Kd is 65.6 nM. For B6, the Kd amounted to 6.29 nM.

For the molecule B7, the Kd was 6.81 nM. Still for that read-out and setting: for B8 the value was 221 nM.

For the molecule B9, the Kd is 9.56 nM.

With B10, the dissociation constant Kd was determined as 13.8 nM. The same measure, in the same setting: to B11 belongs 780 nM; to B12, 33.6 nM.

On to B13, for which the Kd worked out at 5.61 nM. The same measure, in the same setting: to B14 belongs 4.86 nM; to B15, 102 nM. As to B16, the Kd is 3.35 nM. In the case of B17, the Kd came to 77.6 nM. Still for that read-out and setting: to B18 belongs 93.2 nM.
